The values that follow come from patent US20200347146A1 (published 2020).

The target of experiment [1] is human PD-L1 on PD-L1 positive Raji cells (human, UniProt Q9NZQ7 19-290). Briefly: flow cytometry cell binding. A general note: A flow cytometer gives signals particle by particle.
For experiment [2], the target named is human PD-L1 protein (soluble) (human, UniProt Q9NZQ7 19-238). In words: ELISA. A general note: ELISA stands for enzyme-linked immunosorbent assay.
Experiment [3] has as its target T1, CD73 on the surface of A375 cells (UniProt P21589 27-549).
T1 chain: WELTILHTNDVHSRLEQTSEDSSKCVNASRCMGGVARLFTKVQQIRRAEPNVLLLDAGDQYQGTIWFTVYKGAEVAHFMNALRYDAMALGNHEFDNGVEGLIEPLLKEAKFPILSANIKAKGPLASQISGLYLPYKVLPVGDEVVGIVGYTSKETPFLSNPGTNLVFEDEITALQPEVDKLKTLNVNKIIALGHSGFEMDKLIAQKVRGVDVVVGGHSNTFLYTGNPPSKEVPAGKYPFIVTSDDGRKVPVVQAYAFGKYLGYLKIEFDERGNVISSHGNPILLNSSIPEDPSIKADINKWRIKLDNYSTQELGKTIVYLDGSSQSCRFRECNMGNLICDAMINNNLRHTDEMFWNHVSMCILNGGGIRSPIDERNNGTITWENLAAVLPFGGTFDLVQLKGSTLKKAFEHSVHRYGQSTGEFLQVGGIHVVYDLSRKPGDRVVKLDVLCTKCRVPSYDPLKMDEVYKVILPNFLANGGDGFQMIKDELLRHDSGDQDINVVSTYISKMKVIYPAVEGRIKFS
In words: flow cytometry cell binding.

Experiment [4] deals with T2, human CD73 protein (soluble) (human, UniProt P21589 27-549).
T2 chain: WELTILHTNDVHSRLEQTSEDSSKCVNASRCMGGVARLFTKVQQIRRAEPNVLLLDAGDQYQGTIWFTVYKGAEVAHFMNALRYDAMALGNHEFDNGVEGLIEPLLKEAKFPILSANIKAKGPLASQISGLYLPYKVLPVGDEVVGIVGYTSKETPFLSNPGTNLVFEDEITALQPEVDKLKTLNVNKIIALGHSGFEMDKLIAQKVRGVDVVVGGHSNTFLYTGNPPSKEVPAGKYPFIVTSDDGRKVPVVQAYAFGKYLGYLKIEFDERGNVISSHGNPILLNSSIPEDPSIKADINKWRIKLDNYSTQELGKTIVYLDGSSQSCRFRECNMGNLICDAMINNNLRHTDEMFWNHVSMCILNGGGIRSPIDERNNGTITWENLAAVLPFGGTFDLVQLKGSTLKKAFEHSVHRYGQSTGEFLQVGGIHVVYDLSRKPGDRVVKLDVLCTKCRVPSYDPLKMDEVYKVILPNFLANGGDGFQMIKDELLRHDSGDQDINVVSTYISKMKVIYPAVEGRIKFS
Briefly: ELISA.

Sequence of human PD-L1 on PD-L1 positive Raji cells (Q9NZQ7 19-290): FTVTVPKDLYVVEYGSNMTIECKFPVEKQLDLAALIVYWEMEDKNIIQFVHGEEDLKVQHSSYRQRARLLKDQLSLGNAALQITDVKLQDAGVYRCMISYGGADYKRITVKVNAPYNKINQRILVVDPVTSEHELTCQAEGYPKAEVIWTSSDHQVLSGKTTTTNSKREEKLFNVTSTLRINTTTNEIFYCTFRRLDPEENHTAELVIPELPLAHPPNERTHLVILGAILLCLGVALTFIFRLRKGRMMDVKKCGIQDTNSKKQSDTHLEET
Sequence of human PD-L1 protein (soluble) (Q9NZQ7 19-238): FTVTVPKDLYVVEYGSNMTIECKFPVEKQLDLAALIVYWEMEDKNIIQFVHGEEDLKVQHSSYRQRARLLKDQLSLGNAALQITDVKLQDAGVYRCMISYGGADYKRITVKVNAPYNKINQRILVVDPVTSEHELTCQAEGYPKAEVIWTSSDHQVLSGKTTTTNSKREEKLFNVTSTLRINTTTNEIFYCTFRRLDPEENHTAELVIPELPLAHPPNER

B1: H12(PDL1) (monospecific anti-PD-L1 antibody with the H12 VH and H12 VL) (antibody, V domains shown)
VH: EVQLVESGGGLVQPGGSLRLSCAASGFTFSSYDMSWVRQAPGKSLEWVATISDAGGYIYYRDSVKGRFTISRDNAKNSLYLQMNSLRDEDTAVYICARELPWRYALDYWGQGTTVTVSS
VL: DIQMTQSPSSLSASVGDRVTITCKASQDVTPAVAWYQQKPGKAPKLLIYSTSSRYTGVPSRFSGSGSGTDFTFTISSLQPEDIATYYCQQHYTTPLTFGQGTKLEIK
As to B1, the EC50 (commonly the concentration that produces a half-maximal response) came out at 0.0237 nM in experiment [1] and 0.00948 nM in experiment [2].

B2: anti-CD73/PD-L1 bispecific antibody 309-H12 (structure A of FIG. 1) (bispecific antibody)
heavy: not shown
light: EIVLSQSPATLSLSPGERATLSCRASSRVNYMHWYQQKPGQSPRPWISATSNLASGVPARFSGSGSGTSYTLTISSLEPEDFAVYYCQQWSSNPPTFGGGTKVEIKRTVAAPSVFIFPPSDEQLKSGTASVVCLLNNFYPREAKVQWKVDNALQSGNSQESVTEQDSKDSTYSLSSTLTLSKADYEKHKVYACEVTHQGLSSPVTKSFNRGEC
For B2, the half-maximal effective concentration (EC50) in experiment [3] was 2.24 nM; in experiment [4], 0.0715 nM; in experiment [1], 0.255 nM; in experiment [2] it was 0.179 nM.

B3: hu309 (monospecific anti-CD73 antibody with the 309 VH and 309 VL) (antibody, V domains shown)
VH: EVQLQESGPGLVKPSETLSLTCAVSGYSITSGYYWNWIRQPPGKKLEWMGYINYGGSNGYNPSLKSRITISRDTSKNQFSLKLSSVTAADTAVYYCARDYDAYYEALDDWGQGTTVTVSS
VL: EIVLSQSPATLSLSPGERATLSCRASSRVNYMHWYQQKPGQSPRPWISATSNLASGVPARFSGSGSGTSYTLTISSLEPEDFAVYYCQQWSSNPPTFGGGTKVEIK
Take B3: the half-maximal effective concentration (EC50) was found to be 2.06 nM in experiment [3] and 0.0575 nM in experiment [4].
